Laboratory results: patent US20220251194A1 (Merck Sharp & Dohme, published 2022)
Each block holds one binder with its values, some of them ahead of it.

Key:
[1] = biological target: T1, polyhistidine-tagged human PD-1 (hPD1-His, 98AFK) (human, UniProt Q15116 25-167, limits assumed); experiment: SPR (Biacore T200), mAb captured on anti-Fc chip, hPD1-His as analyte
T1 construct: also called human PD1-His; Human PD-1-His
Procedure: (§1) A surface plasmon resonance (SPR)-based assay utilizing capture mode was used to determine the binding kinetics and affinities of anti-PD-1 antibodies against polyhistidine-tagged human PD-1 (hPD1-His, 98AFK). Following manufacture instructions, a series S sensor chip CM5 (GE Healthcare, BR100530) was activated using an amine-coupling kit (GE Healthcare, BR100050). Either human capture kit (anti-human Fc, 25 μg/mL, GE Healthcare, BR100839) or mouse capture kit (anti-mouse Fc, 30 μg/mL, GE Healthcare, BR100838) antibody diluted in the supplied pH 5.0, 10 mM sodium acetate buffer was immobilized onto the activated surface for 7 minutes. After immobilization, surfaces were deactivated with 1M ethanolamine/HCl (pH 8.5) for 7 minutes.
(§2) Binding kinetics were measured on a biacore T200 in HBS-EP+ (0.01 M HEPES pH 7.4, 0.15 M NaCl, 3 mM EDTA, 0.05% v/v Surfactant P20) running buffer at 25° C. Antibodies were captured either on mouse or human Fc capture surfaces at 10 μL/min flow rate. Antibodies were captured on flow cells 2, 3 and 4. Flow cell 1 was used as a reference with no antibody captured. A 6-point, 2-fold serial dilutions of the analyte 98AFK (hPD1-His), starting at 20 nM, were prepared in the running buffer (HBS-EP+). Two buffer blanks were included for double referencing. Titration series were injected for 3 minutes at 50 μl/min followed by 600 seconds of dissociation. After each cycle, surfaces were regenerated with a 30 second injection of 3M MgCl₂ at […] on the anti-human Fc chip or 180 seconds of 10 mM Glycine pH 1.7 at 10 μl/min on the anti-mouse Fc chip.
(§3) Sensorgram processing and data analysis were performed with Biacore T200 Evaluation Software Version 2.0.4 (GE Healthcare). […] Processed curves were globally fitted to a 1:1 binding model to determine the association rate constant, kₒₙ (M⁻¹s⁻¹, where “M” equals molar and “s” equals seconds) and the dissociation rate constant, koff (s⁻¹). These rate constants were used to calculate the equilibrium dissociation constant, KD (M)=koff/kₒₙ.

[2] = biological target: T1, polyhistidine-tagged human PD-1 …; experiment: SPR (Biacore T200), mAb captured on anti-Fc chip; reference Mouse 08A
Procedure: as §1, §2, §3

[3] = biological target: T2, recombinant human or cyno PD-1 (immobilized onto CM5 chip, Example 1) (human or cyno ( which was …, UniProt Q15116 25-167, limits assumed)); experiment: SPR (Biacore T200), PD-1 immobilized on CM5 chip, Fab as analyte
T2 construct: also called antigen
Procedure: Immobilization of recombinant human or cyno PD-1 onto CM5 chip: A CM5 sensor chip was activated in FC2 by 7-min. injection (10 μl/min.) of freshly prepared 1:1 50 mM NHS: 200 mM EDC. PD-1 at a concentration of 0.2 μg/ml in 10 mM sodium acetate buffer pH 5.0 was injected onto the activated chip at 5 μl/min. (HBS-EP running buffer: 10 mM HEPES, 150 mM NaCl, 3.4 mM EDTA, 0.005% surfactant P20, pH 7.4) for 120 seconds. The remaining active coupling sites were blocked with 7 min. injection of 1M ethanolamine at 10 μl/min.
Binding kinetics measurement: Various concentrations of the Fabs were injected with a flow rate of 30 μl/min for 180 seconds(s) during the association phase. The dissociation of bound antibody was monitored by flowing HBS-EP buffer over the chip surface for 600 seconds. At the end of each cycle, the sensor surfaces were regenerated by injecting regeneration buffer (10 mM glycine buffer with pH 1.7) for 180 seconds. After sensograms were corrected for signals from a reference flow, kinetics were calculated with BIACORE T 200 evaluation software ver.1.0 (Biacore, GE, USA).

T2 sequence (Q15116 25-167 limits assumed): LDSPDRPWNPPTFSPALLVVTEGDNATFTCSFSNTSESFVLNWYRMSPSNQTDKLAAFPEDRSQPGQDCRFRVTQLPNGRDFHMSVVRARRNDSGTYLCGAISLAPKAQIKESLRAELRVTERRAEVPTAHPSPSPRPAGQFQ
T1 sequence (Q15116 25-167 limits assumed): as above

B2: Mouse 08A (REF) (antibody, mouse IgG1, kappa, V domains shown)
VH: QVQLQQPGAELVKPGASVKLSCKASGYTFTSYYLYWMKQRPGQGLEWIGGVNPSNGGTNFSEKFKSKATLTVDKSSSTAYMQLSSLTSEDSAVYYCTRRDSNYDGGFDYWGQGTTLTVSS
VL: DIVLTQSPTSLAVSLGQRATISCRASKSVSTSGFSYLHWYQQKPGQPPKLLIFLASNLESGVPARFSGSGSGTDFTLNIHPVEEEDAATYYCQHSWELPLTFGAGTKLELKR
notes: Mouse IgG1 / kappa; also called 09AFF; parental mouse 08A antibody
- Kd [1]: 0.24 nM
- KD (REF)/KD [2]: 1

B4: Mouse 08A N59E (antibody, mouse IgG1, kappa, V domains shown)
VH: QVQLQQPGAELVKPGASVKLSCKASGYTFTSYYLYWMKQRPGQGLEWIGGVNPSNGGTEFSEKFKSKATLTVDKSSSTAYMQLSSLTSEDSAVYYCTRRDSNYDGGFDYWGQGTTLTVSS
VL: DIVLTQSPTSLAVSLGQRATISCRASKSVSTSGFSYLHWYQQKPGQPPKLLIFLASNLESGVPARFSGSGSGTDFTLNIHPVEEEDAATYYCQHSWELPLTFGAGTKLELKR
notes: Mouse IgG1 / kappa; also called 39AFL; Mouse x [PD-1_H] mAb (Clone 1.08 N59E) IgG1 / Kappa
- Kd [1]: 5.9 nM
- KD (REF)/KD [2]: 0.03

B5: Mouse 08A N59A (antibody, mouse IgG1, kappa, V domains shown)
VH: QVQLQQPGAELVKPGASVKLSCKASGYTFTSYYLYWMKQRPGQGLEWIGGVNPSNGGTAFSEKFKSKATLTVDKSSSTAYMQLSSLTSEDSAVYYCTRRDSNYDGGFDYWGQGTTLTVSS
VL: DIVLTQSPTSLAVSLGQRATISCRASKSVSTSGFSYLHWYQQKPGQPPKLLIFLASNLESGVPARFSGSGSGTDFTLNIHPVEEEDAATYYCQHSWELPLTFGAGTKLELKR
notes: Mouse IgG1 / kappa; also called 80AFH; Mouse x [PD-1_H] mAb (Clone 1.08 N59A) IgG1 / Kappa
- Kd [1]: 0.59 nM
- KD (REF)/KD [2]: 0.4

B6: Fab 098 (Fab, V domains shown)
VH: EVQLVQSGAEVKKPGASVKVSCKASGYTFTSYYLYWVRQAPGQGLEWIGGVNPSNGGTNFNEKFKSRVTLTVDTSISTAYMELSRLRSDDTAVYYCTRRLSHYDGGFDYWGQGTTVTVSS
VL: DIVMTQTPLSLSVTPGQPASISCRASKSVSTSGFSYLHWYLQKPGQPPQLLIFLGKFRESGVPDRFSGSGSGTDFTLKISRVEAEDVGVYYCQHSWELPLTFGQGTKLEIKR
notes: also called Fab98
- Kd [3]: 0.031 nM

B9: Humanized 08A IgG4 S61N N55E (antibody, V domains shown)
VH: EVQLVQSGAEVKKPGASVKVSCKASGYTFTSYYLYWVRQAPGQGLEWIGGVNPSEGGTNFNEKFKSRVTLTVDTSISTAYMELSRLRSDDTAVYYCTRRDSNYDGGFDYWGQGTTVTVSS
VL: DIVMTQTPLSLSVTPGQPASISCRASKSVSTSGFSYLHWYLQKPGQPPQLLIFLASNLESGVPDRFSGSGSGTDFTLKISRVEAEDVGVYYCQHSWELPLTFGQGTKLEIKR
notes: IgG4 S228P / kappa; also called 50AQK; Humanized x [PD-1_H] mAb (08A/HuPD1A-11 N55E S228P) IgG4 / Kappa
- Kd [1]: 0.3 nM
- KD (REF)/KD [2]: 0.8

B10: Fab 102 (Fab, V domains shown)
VH: EVQLVQSGAEVKKPGASVKVSCKASGYTFTSYYLYWVRQAPGQGLEWIGGVNPSNGGTNFNEKFKSRVTLTVDTSISTAYMELSRLRSDDTAVYYCTRRLSHYDGGFDYWGQGTTVTVSS
VL: DIVMTQTPLSLSVTPGQPASISCRASKSVSTSGFSYLHWYLQKPGQPPQLLIFLGHFASSGVPDRFSGSGSGTDFTLKISRVEAEDVGVYYCQHSWELPLTFGQGTKLEIKR
- Kd [3]: 0.042 nM

B12: Fab 099 (Fab, V domains shown)
VH: EVQLVQSGAEVKKPGASVKVSCKASGYTFTSYYLYWVRQAPGQGLEWIGGVNPSNGGTNFNEKFKSRVTLTVDTSISTAYMELSRLRSDDTAVYYCTRRLSHYDGGFDYWGQGTTVTVSS
VL: DIVMTQTPLSLSVTPGQPASISCRASKSVSTSGFSYLHWYLQKPGQPPQLLIFLGTHRASGVPDRFSGSGSGTDFTLKISRVEAEDVGVYYCQHSWELPLTFGQGTKLEIKR
- Kd [3]: 0.034 nM

Next, values leading:

- Kd [1]: 0.46 nM
- KD (REF)/KD [2]: 0.5
B1: Mouse 09A (antibody, mouse IgG1, kappa, V domains shown)
VH: QVQLQQPGAELVKPGTSVKLSCKASGYTFTNYYMYWVKQRPGQGLEWIGGINPSNGGTNFNEKFKNKATLTVDSSSSTTYMQLSSLTSEDSAVYYCTRRDYRFDMGFDYWGQGTTLTVSS
VL: DIVLTQSPASLAVSLGQRAAISCRASKGVSTSGYSYLHWYQQKPGQSPKLLIYLASYLESGVPARFSGSGSGTDFTLNIHPVEEEDAATYYCQHSRDLPLTFGTGTKLELKR
notes: Mouse IgG1 / kappa; also called 03AFN; Mouse x [PD-1_H] mAb (clone 09A) IgG1 / Kappa

- Kd [1]: 9.6 nM
- KD (REF)/KD [2]: 0.04
B3: Mouse 08A N59Q (antibody, mouse IgG1, kappa, V domains shown)
VH: QVQLQQPGAELVKPGASVKLSCKASGYTFTSYYLYWMKQRPGQGLEWIGGVNPSNGGTQFSEKFKSKATLTVDKSSSTAYMQLSSLTSEDSAVYYCTRRDSNYDGGFDYWGQGTTLTVSS
VL: DIVLTQSPTSLAVSLGQRATISCRASKSVSTSGFSYLHWYQQKPGQPPKLLIFLASNLESGVPARFSGSGSGTDFTLNIHPVEEEDAATYYCQHSWELPLTFGAGTKLELKR
notes: Mouse IgG1 / kappa; also called 38AFL; Mouse x [PD-1_H] mAb (Clone 1.08 N59Q) IgG1 / Kappa

- Kd [1]: 0.14 nM
- KD (REF)/KD [2]: 1.7
B7: Humanized 08A IgG4 (antibody, V domains shown)
VH: EVQLVQSGAEVKKPGASVKVSCKASGYTFTSYYLYWVRQAPGQGLEWIGGVNPSNGGTNFSEKFKSRVTLTVDTSISTAYMELSRLRSDDTAVYYCTRRDSNYDGGFDYWGQGTTVTVSS
VL: DIVMTQTPLSLSVTPGQPASISCRASKSVSTSGFSYLHWYLQKPGQPPQLLIFLASNLESGVPDRFSGSGSGTDFTLKISRVEAEDVGVYYCQHSWELPLTFGQGTKLEIKR
notes: IgG4 S228P / kappa; also called 73AGG; Humanized x [PD-1_H] mAb (08A/HuPD1A-11 S228P) IgG4 / Kappa

- Kd [3]: 0.024 nM
B8: Fab 100 (Fab, V domains shown)
VH: EVQLVQSGAEVKKPGASVKVSCKASGYTFTSYYLYWVRQAPGQGLEWIGGVNPSNGGTNFNEKFKSRVTLTVDTSISTAYMELSRLRSDDTAVYYCTRRLSHYDGGFDYWGQGTTVTVSS
VL: DIVMTQTPLSLSVTPGQPASISCRASKSVSTSGFSYLHWYLQKPGQPPQLLIFLSKYRSSGVPDRFSGSGSGTDFTLKISRVEAEDVGVYYCSQAYHLPLTFGQGTKLEIKR

- Kd [1]: 0.045 nM
- KD (REF)/KD [2]: 5.2
B11: Humanized 08A IgG4 S61N (lot 67AGG) (antibody)
heavy: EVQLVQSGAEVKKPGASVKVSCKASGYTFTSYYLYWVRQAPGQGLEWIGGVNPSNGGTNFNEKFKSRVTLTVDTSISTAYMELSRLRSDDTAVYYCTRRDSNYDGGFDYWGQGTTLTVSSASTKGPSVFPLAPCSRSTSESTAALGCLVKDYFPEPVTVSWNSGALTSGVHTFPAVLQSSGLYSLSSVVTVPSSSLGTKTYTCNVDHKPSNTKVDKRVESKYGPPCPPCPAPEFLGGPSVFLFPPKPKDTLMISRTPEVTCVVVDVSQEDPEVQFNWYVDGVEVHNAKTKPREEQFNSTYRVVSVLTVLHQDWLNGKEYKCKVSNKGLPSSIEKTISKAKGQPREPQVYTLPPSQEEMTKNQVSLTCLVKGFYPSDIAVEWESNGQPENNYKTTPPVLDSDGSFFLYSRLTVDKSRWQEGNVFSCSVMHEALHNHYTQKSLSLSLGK
light: DIVMTQTPLSLSVTPGQPASISCRASKSVSTSGFSYLHWYLQKPGQPPQLLIFLASNLESGVPDRFSGSGSGTDFTLKISRVEAEDVGVYYCQHSWELPLTFGQGTKLEIKRTVAAPSVFIFPPSDEQLKSGTASVVCLLNNFYPREAKVQWKVDNALQSGNSQESVTEQDSKDSTYSLSSTLTLSKADYEKHKVYACEVTHQGLSSPVTKSFNRGEC
notes: IgG4 S228P / kappa; Differs from lot 98AIO by an HFR4 mutation; also called Humanized x [PD-1_H] mAb (08A/HuPD1A-11 S61N WT) S228P IgG4 / Kappa, with HFR4 mutation

- Kd [3]: 0.028 nM
B13: Fab 103 (Fab, V domains shown)
VH: EVQLVQSGAEVKKPGASVKVSCKASGYTFTSYYLYWVRQAPGQGLEWIGGVNPSNGGTNFNEKFKSRVTLTVDTSISTAYMELSRLRSDDTAVYYCTRRLSHYDGGFDYWGQGTTVTVSS
VL: DIVMTQTPLSLSVTPGQPASISCRASKSVSTSGFSYLHWYLQKPGQPPQLLIFLGRYLQSGVPDRFSGSGSGTDFTLKISRVEAEDVGVYYCQHSWELPLTFGQGTKLEIKR

- Kd [3]: 0.029 nM
B14: Fab 101 (Fab, V domains shown)
VH: EVQLVQSGAEVKKPGASVKVSCKASGYTFTSYYLYWVRQAPGQGLEWIGGVNPSNGGTNFNEKFKSRVTLTVDTSISTAYMELSRLRSDDTAVYYCTRRLSHYDGGFDYWGQGTTVTVSS
VL: DIVMTQTPLSLSVTPGQPASISCRASKSVSTSGFSYLHWYLQKPGQPPQLLIFLGKYGASGVPDRFSGSGSGTDFTLKISRVEAEDVGVYYCAQATQLPLTFGQGTKLEIKR

- Kd [3]: 0.052 nM
B15: Fab 104 (Fab, V domains shown)
VH: EVQLVQSGAEVKKPGASVKVSCKASGYTFTSYYLYWVRQAPGQGLEWIGGVNPSNGGTNFNEKFKSRVTLTVDTSISTAYMELSRLRSDDTAVYYCTRRLSHYDGGFDYWGQGTTVTVSS
VL: DIVMTQTPLSLSVTPGQPASISCRASKSVSTSGFSYLHWYLQKPGQPPQLLIFLGTHSVSGVPDRFSGSGSGTDFTLKISRVEAEDVGVYYCQHSWELPLTFGQGTKLEIKR
